Results on one molecule are retold here after patent US20060009452A1, “Therapeutic targeting of PARC/CCL18 and its signaling in pulmonary fibrosis” (priority 2004, published 2006).

Common to all, as to type: cell-based, human
One assay concerns lung fibroblasts. Briefly: Western blotting of fibroblast culture supernatants for collagen type I / α1(I). The method, then:
Collagen Production Assays. Collagen was quantified as described elsewhere (Atamas S P et al.). Briefly, fibroblasts were cultured with β-aminopropionitrile (Sigma) to prevent collagen cross-linking, and Western blotting assays for collagen were performed using rabbit affinity purified anti-collagen type I antibody (Rockland, Gilbertsville, Pa.). Before electrophoresis, samples were reduced and denatured by boiling in Laemmli buffer containing β-mercaptoethanol. Human purified collagen type I (Southern Biotech, Birmingham, Ala.) was used as a positive control in these assays. The identity of collagen bands was confirmed by sensitivity to pepsin and collagenase (both from Sigma) digestion, as described (Atamas S P et al.). Under these conditions, pro-collagen appears as a single or double band around 175 kDa (Gaidarova S et al., Stefanovic B et al.). Images were collected using a Storm densitometer and band densities analyzed with ImageQuant software (Molecular Dynamics, Sunnyvale, Calif.).
Western blotting assays for collagen were performed using rabbit affinity purified anti-collagen type I antibody (Rockland, Gilbertsville, Pa.). Before electrophoresis, samples were reduced and denatured by boiling in Laemmli buffer containing β-mercaptoethanol. Human purified collagen type I (Southern Biotech, Birmingham, Ala.) was used as a positive control in these assays.
Collagen was quantified by Western blotting and the identity of collagen bands was confirmed by sensitivity to pepsin and collagenase digestion as described elsewhere in Atamas et al. (Am. J. Respir. Cell. Mol., 29:743-749 (2003)). In these assays, pro-collagen appears as a single or double band with a molecular weight of approximately 175 kDa (4,27,28).

The test system of a further assay is TGF-β1. Briefly: TGF-β1 ELISA of fibroblast supernatants and lysates. The following applies: 300 ng/ml rhPARC. The text has this:
Transforming Growth Factor-β ELISA Assays. ELISA kits for TGF-β1 and TGF-β2 were purchased from R&D Systems. ELISA for TGF-β3 was custom developed using a DuoSet ELISA Development System (R&D Systems) following manufacturer's recommendations. […] Recombinant human TGF-β1, TGF-β2, and TGF-β3 from R&D Systems were used in serial dilutions for calibration of the assays. The minimal detection level in these assays was 10-20 pg/ml of TGF-β. Low serum cell culture medium containing 0.5% dialyzed fetal bovine serum had no detectable TGF-β and was used as a negative control in these assays. Each of LF1-LF4 cultures was tested in duplicates for each time point in at least three independent experiments.
Transforming Growth Factor-β1 ELISA Assays. ELISA kits for transforming growth factor (TGF)-β1 were purchased from R&D Systems (Minneapolis, Minn.), and fibroblast culture supernatants and whole cell lysates after 3, 6, 12, 24, 48, and 72 h activation with rhPARC were assayed in duplicates for total TGF-β1, according to the manufacturer's instructions. Low-serum cell culture medium containing 0.5% dialyzed fetal bovine serum had no detectable TGF-β1 and was used as a negative control in these assays.
ELISA kits for TGF-β1, -β2, and -β3 were purchased from R&D Systems and assays performed following manufacturer's recommendations. […] The minimal detection level in these assays was 10-20 pg/ml of TGF-β. […]

A further assay deals with Smad3. As to the kind of experiment: Smad3 immunoprecipitation and phosphorylation Western blot. The following applies: fibroblasts activated with cytokine. The protocol: To determine if PARC stimulated phosphorylation of Sp1 and Smad3, these factors were immunoprecipitated from lysates of fibroblasts that had been activated with recombinant human PARC for up to 24 hours, and the levels of their phosphorylation were tested in Western blotting assays using anti-phosphoserine and anti-phospho-Smad2/3 antibodies. Equal loading was controlled by stripping the membranes and re-developing them with anti-Sp1, anti-Smad3 and anti-Smad2/3 antibodies (FIG. 17).
Preparation of fibroblast lysates, immunoprecipitation of Sp1 and Smad2/3, normalization of protein concentration in the samples with BioRad assays, electrophoretic separation, Western blotting, membrane stripping and re-development with different antibodies were performed as described in Atamas et al. (Am. J. Respir. Cell. Mol., 29:743-749 (2003); J. Immunol. 168: 1139-1145 (2002); and Arthritis Rheum., 42:1168-1178 (1999)), which are hereby incorporated by reference. Rabbit antibodies for total Smad2/3 and Sp1 were from Upstate (Waltham, Masss.). Antiphospho-Smad2/3 antibody and goat antibody for total Smad3 were from Santa Cruz Biotechnology (Santa Cruz, Calif.), as was anti-gp130 antibody used to confirm equal loading of the samples. Antiphosphoserine antibody was from Biomol (Plymouth Meeting, Pa.).

B1: rhPARC: Recombinant human pulmonary and activation-regulated chemokine (CC chemokine CCL18), purchased from R&D Systems and Cell Sciences (protein)
chain: AQVGTNKELCCLVYTSWQIPQKFIVDYSETSPQCPKPGVILLTKRGRQICADPNKKWVQKYISDLKLNA
On to B1, for which the “concentration causing detectable stimulation of collagen production” value in the assay on lung fibroblasts was “below 300 ng/ml”. The “collagen production, dose-response” value with lung fibroblasts (LF1 and LF4, 30 ng/ml and 300 ng/ml rhPARC) is reported as “significant increase in collagen production”. In the assay with lung fibroblasts (LF1 and LF4, 3, 6 and 12 h of activation), the “increase in collagen production over control non-treated cells” value is no more than 1.2±0.2 fold. The “combined density of procollagen bands, fold higher than non-stimulated control” value in the assay with lung fibroblasts (LF2 cells, 300 ng/ml rhPARC, 48 h) was 4.2 fold; in the assay with lung fibroblasts (LF4 cells, 100 ng/ml rhPARC, 48 h), 3.6 fold. The “increase in densities of the collagen bands relative to the control culture” value stood at 4.4 with lung fibroblasts (LF4, 300 ng/ml rhPARC, 24 h); 3.2 in the assay with lung fibroblasts (LF4, 300 ng/ml rhPARC, 48 h); 1.3 in the assay on lung fibroblasts (LF4, 300 ng/ml rhPARC, 72 h, bands saturated). In the assay on lung fibroblasts (LF4, 300 ng/ml rhPARC, 72 h), the “increase in collagen production, densitometry at shorter non-saturating exposure” value was 3.4 fold. Further, in the assay on TGF-β1 (3-72 h, lung and dermal fibroblast lines), the “maximal increase in production of TGFβ1 by fibroblasts” value is 1.3±0.2 fold. Further, the “total TGF-β1 in culture supernatants after stimulation” value in the assay with TGF-β1 (primary lung fibroblast cultures) is given as “decreased”. Also, the “phosphorylation of immunoprecipitated Smad3” value in the assay with Smad3 was “No changes in phosphorylation”.
